Reference: patent publication US20260166139A1
Values joined by “and” are separate entries in the source; they are usually repeats but may differ in a detail not shown here. Equal entries are not always repeated.

Assays:
[1] = target: CTLA4-mFc; assay: competitive ELISA, B7/1-hFc coated (competitor), CTLA4-mFc added; antibody 5 µg/ml diluted 1:9
[2] = target: human CTLA4 (human) (UniProt P16410); assay: ELISA, coat CTLA4 0.5 ug/ml; antibody 1 ug/ml
[3] = target: human CTLA4 (human) (UniProt P16410); assay: ELISA, coat human CTLA4 0.5 ug/ml; antibody 1:729 (start 1 ug/ml)
[4] = target: CTLA4-mFc; assay: competitive ELISA, B7/1-hFc coated (competitor), CTLA4-mFc added; antibody 0 (no antibody)
[5] = target: murine CTLA4 (murine) (UniProt P09793); assay: ELISA on coated CTLA4, source Mouse (row of 8D2)
[6] = target: CTLA4-mFc; assay: competitive ELISA, competitor B7-1; control run with 8D2H2L2
[7] = target: CTLA4-mFc; assay: competitive ELISA, CTLA4-mFc coated, competitor B7/2-His; antibody 3 µg/ml
[8] = target: CTLA4-mFc; assay: competitive ELISA, CTLA4-mFc coated, competitor B7/2-His; antibody 1.5 µg/ml diluted 1:9
[9] = target: human CTLA4 (human) (UniProt P16410); assay: ELISA on coated CTLA4, source Human (row of 8D2H2L17)
[10] = target: CTLA4-mFc; assay: competitive ELISA, B7/1-hFc coated (competitor), CTLA4-mFc added; antibody 5 µg/ml diluted 1:9; remark: listed apart in the source
[11] = target: CTLA4-mFc; assay: competition ELISA, coat B7/1-hFc 0.2 ug/ml (competitor), CTLA4-mFc 0.3 ug/ml detected; antibody 3 ug/ml
[12] = target: CTLA4-mFc; assay: competitive ELISA, competitor B7-2; control run with 8D2H3L3
[13] = target: monkey CTLA4-hFc (monkey); assay: ELISA on coated CTLA4, source Monkey (row of 8D2H3L3)
[14] = target: monkey CTLA4-hFc (monkey); assay: ELISA, coat monkey CTLA4-hFc 0.25 ug/ml; antibody 1:27 (start 1 ug/ml)
[15] = target: CTLA4-mFc; assay: competitive ELISA, CTLA4-mFc coated, competitor B7/2-His; antibody 1.5 µg/ml diluted 1:3
[16] = target: human CTLA4 (human) (UniProt P16410); assay: ELISA, coat CTLA4 0.5 ug/ml; antibody 1:3 (start 1 ug/ml)
[17] = target: murine CTLA4 (murine) (UniProt P09793); assay: ELISA on coated CTLA4, source Mouse (row of 8D2(Re))
[18] = target: CTLA4-mFc; assay: competition ELISA, coat B7/1-hFc 0.2 ug/ml (competitor), CTLA4-mFc 0.3 ug/ml detected; antibody 0 (no antibody)
[19] = target: CTLA4-mFc; assay: competitive ELISA, CTLA4-mFc coated, competitor B7/2-His; antibody 1.5 µg/ml diluted 1:81
[20] = target: CTLA4-mFc; assay: competitive ELISA, CTLA4-mFc coated, competitor B7/2-His; antibody 1 µg/ml diluted 1:729
[21] = target: CTLA4-mFc; assay: competitive ELISA, B7/1-hFc coated (competitor), CTLA4-mFc added; antibody 5 µg/ml diluted 1:81
[22] = target: CTLA4-mFc; assay: competitive ELISA, B7/1-hFc coated (competitor), CTLA4-mFc added; antibody 5 µg/ml diluted 1:3
[23] = target: monkey CTLA4-hFc (monkey); assay: ELISA, coat monkey CTLA4-hFc 0.25 ug/ml; antibody 1:243 (start 1 ug/ml)
[24] = target: monkey CTLA4-hFc (monkey); assay: ELISA, coat monkey CTLA4-hFc 0.25 ug/ml; antibody 1:81 (start 1 ug/ml)
[25] = target: CTLA4-mFc; assay: competitive ELISA, CTLA4-mFc coated, competitor B7/2-His; antibody 3 µg/ml diluted 1:9
[26] = target: human CTLA4 (human) (UniProt P16410); assay: ELISA, coat CTLA4 0.5 ug/ml; antibody 1:27 (start 1 ug/ml)
[27] = target: CTLA4-mFc; assay: competitive ELISA, CTLA4-mFc coated, competitor B7/2-His; antibody 3 µg/ml diluted 1:243
[28] = target: CTLA4-mFc; assay: competitive ELISA, CTLA4-mFc coated, competitor B7/2-His; antibody 3 µg/ml diluted 1:729
[29] = target: CTLA4-mFc; assay: competitive ELISA, competitor B7-2; control run with 8D2H2L17
[30] = target: human CTLA4 (human) (UniProt P16410); assay: ELISA, coat CTLA4 0.5 ug/ml; antibody 1:81 (start 1 ug/ml)
[31] = target: CTLA4-mFc; assay: competitive ELISA, competitor B7-2; control run with 8D2
[32] = target: human CTLA4 (human) (UniProt P16410); assay: ELISA, coat human CTLA4 0.5 ug/ml; antibody 1:81 (start 1 ug/ml)
[33] = target: monkey CTLA4-hFc (monkey); assay: ELISA, coat monkey CTLA4-hFc 0.25 ug/ml; antibody 1:3 (start 1 ug/ml)
[34] = target: monkey CTLA4-hFc (monkey); assay: ELISA on coated CTLA4, source Monkey (row of 8D2H2L2)
[35] = target: monkey CTLA4-hFc (monkey); assay: ELISA, coat monkey CTLA4-hFc 0.25 ug/ml; antibody 1 ug/ml
[36] = target: CTLA4-mFc; assay: competitive ELISA, CTLA4-mFc coated, competitor B7/2-His; antibody 1.5 µg/ml diluted 1:27
[37] = target: human CTLA4 (human) (UniProt P16410); assay: ELISA, coat human CTLA4 0.5 ug/ml; antibody 0 (blank)
[38] = target: human CTLA4 (human) (UniProt P16410); assay: ELISA, coat CTLA4 0.5 ug/ml; antibody 0 (blank)
[39] = target: human CTLA4 (human) (UniProt P16410); assay: ELISA, coat human CTLA4 0.5 ug/ml; antibody 1:9 (start 1 ug/ml)

Chain of CTLA4-mFc (chain, as listed by the source limits assumed): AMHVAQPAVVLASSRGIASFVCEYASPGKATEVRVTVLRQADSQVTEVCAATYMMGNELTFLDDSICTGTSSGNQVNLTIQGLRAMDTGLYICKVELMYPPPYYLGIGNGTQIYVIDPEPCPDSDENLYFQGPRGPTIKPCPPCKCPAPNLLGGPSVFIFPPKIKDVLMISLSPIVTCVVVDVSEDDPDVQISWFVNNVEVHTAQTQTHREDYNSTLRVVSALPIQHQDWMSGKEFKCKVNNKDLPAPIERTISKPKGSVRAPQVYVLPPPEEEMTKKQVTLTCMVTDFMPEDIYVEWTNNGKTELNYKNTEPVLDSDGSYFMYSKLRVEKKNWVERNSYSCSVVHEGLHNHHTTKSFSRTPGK
Chain of human CTLA4 (human) (P16410 36-161 limits assumed): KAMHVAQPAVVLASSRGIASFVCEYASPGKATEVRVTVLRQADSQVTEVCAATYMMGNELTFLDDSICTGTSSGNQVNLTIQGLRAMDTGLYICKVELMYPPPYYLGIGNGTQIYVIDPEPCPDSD
Chain of control antibody 11.2.1 (VH): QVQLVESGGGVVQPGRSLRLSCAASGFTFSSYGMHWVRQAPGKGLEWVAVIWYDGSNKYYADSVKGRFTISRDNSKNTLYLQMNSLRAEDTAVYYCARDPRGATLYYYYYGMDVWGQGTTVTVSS
Chain of control antibody 11.2.1 (VL): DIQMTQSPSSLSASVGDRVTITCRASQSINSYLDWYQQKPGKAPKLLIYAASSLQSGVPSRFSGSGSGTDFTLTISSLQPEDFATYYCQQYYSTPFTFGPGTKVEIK

control antibody 11.2.1
absorbance at 450 nm [1]: 0.16 and 0.138 | absorbance at 450 nm [2]: 2.75 and 2.69 | absorbance at 450 nm [3]: 0.253 and 0.263 | absorbance at 450 nm [4]: 1.28 and 1.3 | EC50 [5]: 0.023 nM | EC50 [6]: 1.07 nM | absorbance at 450 nm [7]: 0.492 and 0.442 | absorbance at 450 nm [8]: 0.479 and 0.412 | EC50 [9]: 0.075 nM | absorbance at 450 nm [10]: 0.33 and 0.3 | absorbance at 450 nm [11]: 0.101 and 0.105 | EC50 [12]: 0.172 nM | EC50 [13]: 0.075 nM | absorbance at 450 nm [14]: 0.625 and 0.665 | absorbance at 450 nm [15]: 0.437 and 0.348 | absorbance at 450 nm [16]: 2.56 and 2.66 | EC50 [17]: 0.023 nM | absorbance at 450 nm [18]: 0.826 and 0.55 | absorbance at 450 nm [19]: 0.805 and 0.649 | absorbance at 450 nm [20]: 0.87 and 0.85 | absorbance at 450 nm [21]: 1.17 and 1.2 | absorbance at 450 nm [22]: 0.09 and 0.097 | absorbance at 450 nm [23]: 0.13 and 0.172 | absorbance at 450 nm [24]: 0.297 and 0.313 | absorbance at 450 nm [25]: 0.412 and 0.482 | absorbance at 450 nm [26]: 2.13 and 2.28 | absorbance at 450 nm [27]: 1.24 and 1.21 | absorbance at 450 nm [28]: 1.36 and 1.23 | EC50 [29]: 0.349 nM | absorbance at 450 nm [30]: 1.37 and 1.53 | EC50 [31]: 0.15 nM | absorbance at 450 nm [32]: 1.25 and 1.27 | absorbance at 450 nm [33]: 1.54 and 1.46 | EC50 [34]: 0.075 nM | absorbance at 450 nm [35]: 1.72 and 1.63 | absorbance at 450 nm [36]: 0.622 and 0.529 | absorbance at 450 nm [37]: 0.057 and 0.061 | absorbance at 450 nm [38]: 0.05 | absorbance at 450 nm [39]: 1.29 and 1.41
